Residue numbers refer to the chain shown, from its start. Numbers in names are those of the source. One block for each binder: values may come before it.
How the values were obtained:
[1] = target: T1, human CD47 on cells (SHP-77 tumor cells, human red blood cells, CCRF-CEM cells, human CD47 CHO-K1 stable cell … (human, UniProt Q08722 19-323)); test: flow cytometry on human RBCs;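 further: antibody binding measured by flow cytometry as geometric mean fluorescence intensity over a range of antibody concentrations, with EC50 and maximum taken from a sigmoidal dose-response fit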
T1 construct: whole, on cells; also called RBC

[2] = target: T1, human CD47 on cells (SHP-77 tumor …); test: flow cytometry on SHP-77 cells
[3] = target: T2, wild type human CD47 (Acro Biosystems, cat. no. CD7-H5227) (human, UniProt Q08722 19-139); test: SPR, IgG captured, CD47 in flow; exp 1;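 further: biacore T200 SPR using IgG from supernatants of transfected HEK293 cells, rate constants fitted to association and dissociation curves, Kd derived from koff over kon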
T2 construct: Bought protein used as SPR analyte; also called Human CD47 wt; wild-type CD47

Human CD47-C33G [4] = target: T3, Human CD47-C33G (human, UniProt Q08722 19-135); test: SPR, IgG captured, CD47 in flow; exp 1;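 further: biacore T200 SPR using IgG from supernatants of transfected HEK293 cells, rate constants fitted to association and dissociation curves, Kd derived from koff over kon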
T3 construct: also called CD47 mutein with C33G mutation

[5] = target: T1, human CD47 on cells (SHP-77 tumor …); test: flow cytometry on human CD47 CHO-K1 cells; plateau not reached, not accurate
[6] = target: T4, cynomolgus CD47 on CHO-K1 stable cell line (cynomolgus, UniProt A0A5F8AK49 19-323 (rhesus entry)); test: flow cytometry on cynomolgus CD47 CHO-K1 cells; plateau not reached, not accurate
T4 construct: whole, on cells; also called cynomolgus CD47/CHO-K1

[7] = target: T2, wild type human CD47 (Acro Biosystems, …); test: SPR, IgG captured, CD47 in flow; exp 2
Human CD47-C33G [8] = target: T3, Human CD47-C33G; test: SPR, IgG captured, CD47 in flow; exp 2
Human CD47-C33G [9] = target: T3, Human CD47-C33G; test: SPR, IgG captured, CD47 in flow; exp 2; estimated, out of instrument limit
[10] = target: T1, human CD47 on cells (SHP-77 tumor …); test: cell-based or functional assay
[11] = target: T2, wild type human CD47 (Acro Biosystems, …); test: SPR, IgG captured, CD47 in flow; exp 4
Human CD47-C33G [12] = target: T3, Human CD47-C33G; test: SPR, IgG captured, CD47 in flow; exp 4
[13] = target: T1, human CD47 on cells (SHP-77 tumor …); test: flow cytometry on human CD47 CHO-K1 cells
[14] = target: T4, cynomolgus CD47 on CHO-K1 stable cell …; test: flow cytometry on cynomolgus CD47 CHO-K1 cells
[15] = target: T1, human CD47 on cells (SHP-77 tumor …); test: flow cytometry on human RBCs; plateau not reached, not accurate;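 on Fitted Maximal MFI: antibody binding measured by flow cytometry as geometric mean fluorescence intensity over a range of antibody concentrations, with EC50 and maximum taken from a sigmoidal dose-response fit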
[16] = target: T2, wild type human CD47 (Acro Biosystems, …); test: SPR, IgG captured, CD47 in flow; exp 3;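 further: other target is a CD47 mutein carrying C33G, used to obtain true monovalent affinity, with kon and koff fitted from SPR binding curves and KD derived from both rates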
Human CD47-C33G [17] = target: T3, Human CD47-C33G; test: SPR, IgG captured, CD47 in flow; exp 3;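 further: other target is a CD47 mutein carrying C33G, used to obtain true monovalent affinity, with kon and koff fitted from SPR binding curves and KD derived from both rates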
[18] = target: T2, wild type human CD47 (Acro Biosystems, …); test: SPR, IgG captured, CD47 in flow; exp 4; remark: listed apart in the source
Human CD47-C33G [19] = target: T3, Human CD47-C33G; test: SPR, IgG captured, CD47 in flow; exp 4; remark: listed apart in the source
Human CD47-C33G [20] = target: T3, Human CD47-C33G; test: SPR, IgG captured, CD47 in flow; exp 2; remark: listed apart in the source
[21] = target: T2, wild type human CD47 (Acro Biosystems, …); test: SPR, IgG captured, CD47 in flow; exp 2; remark: listed apart in the source
Human CD47-C33G [22] = target: T3, Human CD47-C33G; test: SPR, IgG captured, CD47 in flow; exp 2; remark: listed apart in the source
Human CD47-C33G [23] = target: T3, Human CD47-C33G; test: SPR, IgG captured, CD47 in flow; exp 2; estimated, out of instrument limit; remark: listed apart in the source

B2: 108VH5.M11 / 108VL1.M5 (antibody, human IgG4 S228P, kappa, V domains shown)
VH: EVQLVQSGAEVKKPGASVKVSCKASGYTFTHHYIHWVRQAPGQGLEWMGMIDASDSETRYAQKFQGRVTMTRDTSTSTVYMELSSLRSEDTAVYYCARLGRYYFDYWGQGTLVTVSS
VL: EIVLTQSPATLSLSPGERATLSCRASQSVSSYLAWYQQKPGQAPRLLIYGASNRATGIPARFSGSGSGTDFTLTISSLEPEDFAVYYCGESYGHLYTFGGGTKVEIKR
notes: Full-length IgG4 (S228P), kappa; also called VH5.M11 VL1.M5
EC50 [1]: 178 nM | Fitted Maximal MFI [1]: 1540 MFI | EC50 [2]: 797 nM | Fitted Maximal MFI [2]: 4000 MFI | Kd [7]: 12 nM | koff [7]: 0.0032 s⁻¹ | kon [7]: 260000 M⁻¹ s⁻¹ | kon (Human CD47-C33G [8]): 190000 M⁻¹ s⁻¹ | Kd (Human CD47-C33G [9]): > 530 nM | koff (Human CD47-C33G [9]): > 0.1 s⁻¹

B3: 108VH5.M15 / 108VL1.M5 (antibody, human IgG4 S228P, kappa, V domains shown)
VH: B2 VH with Y33W, E57S
VL: B2 VL
notes: Full-length IgG4 (S228P), kappa; also called VH5.M15 VL1.M5
EC50 [1]: 155 nM | Fitted Maximal MFI [1]: 926 MFI | EC50 [2]: 396 nM | Fitted Maximal MFI [2]: 3680 MFI | Kd [7]: 22 nM | koff [7]: 0.0048 s⁻¹ | kon [7]: 220000 M⁻¹ s⁻¹ | kon (Human CD47-C33G [8]): 160000 M⁻¹ s⁻¹ | Kd (Human CD47-C33G [9]): > 630 nM | koff (Human CD47-C33G [9]): > 0.1 s⁻¹

B8: 108VH10 / 108VL10.Mb (antibody, V domains shown)
VH: EVQLVESGGGLVQPGGSLRLSCAASGYSFTHHWIHWVRQAPGKGLEWVAMIDPSDSETRLSQKFKDRFTISADTSKNTAYLQMNSLRAEDTAVYYCSRLGRYYFDYWGQGTLVTVSS
VL: DIQMTQSPSSLSASVGDRVTITCRASENVGTYISWYQQKPGKAPKLLIYAASNRYTGVPSRFSGSRSGTDFTLTISSLQPEDFATYYCGESYGHLYTFGQGTKVEIK
notes: 4D5-framework series; constant regions not restated for this series; also called VH10 VL10.Mb
fold reduction of mono-valent binding affinity against the straight-graft antibody (Human CD47-C33G [20]): 7.7 fold | Kd [21]: 38 nM | koff [21]: 0.011 s⁻¹ | kon [21]: 290000 M⁻¹ s⁻¹ | Kd (Human CD47-C33G [22]): 330 nM | koff (Human CD47-C33G [22]): 0.016 s⁻¹ | kon (Human CD47-C33G [22]): 47000 M⁻¹ s⁻¹

B9: 108VH10.Mc / 108VL10.M1 (antibody, V domains shown)
VH: B8 VH with H35S
VL: B8 VL with A50G
notes: 4D5-framework series; constant regions not restated for this series; also called VH10.Mc VL10.M1
Kd [21]: 21 nM | koff [21]: 0.0054 s⁻¹ | kon [21]: 250000 M⁻¹ s⁻¹ | kon (Human CD47-C33G [22]): 61000 M⁻¹ s⁻¹ | Kd (Human CD47-C33G [23]): > 1600 nM | koff (Human CD47-C33G [23]): > 0.1 s⁻¹

B10: 108VH10.Mf / 108VL10.M1 (antibody, V domains shown)
VH: B8 VH with S61V, Q62D, K63S, F64V, D66G
VL: B8 VL with A50G
notes: 4D5-framework series; constant regions not restated for this series; also called VH10.Mf VL10.M1
fold reduction of mono-valent binding affinity compared to 108VH10 (Human CD47-C33G [20]): 6.7 fold | Kd [21]: 30 nM | koff [21]: 0.0071 s⁻¹ | kon [21]: 230000 M⁻¹ s⁻¹ | Kd (Human CD47-C33G [22]): 290 nM | koff (Human CD47-C33G [22]): 0.014 s⁻¹ | kon (Human CD47-C33G [22]): 49000 M⁻¹ s⁻¹

The next lines start with the values.

EC50 [1]: 11.1 nM | Fitted Maximal MFI [1]: 9460 MFI | EC50 [2]: 25.1 nM | Fitted Maximal MFI [2]: 6250 MFI | Kd [3]: 8 nM | koff [3]: 0.0039 s⁻¹ | kon [3]: 490000 M⁻¹ s⁻¹ | Kd (Human CD47-C33G [4]): 800 nM | koff (Human CD47-C33G [4]): 0.097 s⁻¹ | kon (Human CD47-C33G [4]): 120000 M⁻¹ s⁻¹ | EC50 [5]: 20 nM | EC50 [6]: 22.5 nM
B1: 108VH5.M6 / 108VL1.M5 (antibody, human IgG4 S228P, kappa, V domains shown)
VH: B2 VH with I34M, Y60L, A61S, Q65K, G66D
VL: B2 VL
notes: Full-length IgG4 (S228P), kappa; also called VH5.M6 VL1.M5

CCRF-CEM phagocytosis EC50 [10]: 0.28 nM | CCRF-CEM phagocytosis, Phagocytosis (%) [10]: 64.3% | EC50 [1]: 4.7 nM | Fitted Maximal MFI [1]: 26900 MFI | EC50 [2]: 9 nM | Fitted Maximal MFI [2]: 36500 MFI | Kd [11]: 7.4 nM | koff [11]: 0.0036 s⁻¹ | kon [11]: 490000 M⁻¹ s⁻¹ | Kd (Human CD47-C33G [12]): 39 nM | koff (Human CD47-C33G [12]): 0.0085 s⁻¹ | kon (Human CD47-C33G [12]): 220000 M⁻¹ s⁻¹ | EC50 [13]: 2.6 nM | EC50 [14]: 3.4 nM
B4: 108VH5.M27 / 108VL1.M5 (antibody, human IgG4 S228P, kappa, V domains shown)
VH: B2 VH with Y33W, I34M, S56Y
VL: B2 VL
notes: Full-length IgG4 (S228P), kappa; also called VH5.M27 VL1.M5

CCRF-CEM phagocytosis EC50 [10]: 0.37 nM | CCRF-CEM phagocytosis, Phagocytosis (%) [10]: 59.4% | EC50 [2]: 8.4 nM | Fitted Maximal MFI [2]: 41600 MFI | Kd [11]: 6.1 nM | koff [11]: 0.0029 s⁻¹ | kon [11]: 480000 M⁻¹ s⁻¹ | Kd (Human CD47-C33G [12]): 35 nM | koff (Human CD47-C33G [12]): 0.0068 s⁻¹ | kon (Human CD47-C33G [12]): 200000 M⁻¹ s⁻¹ | EC50 [13]: 3.6 nM | EC50 [14]: 3.6 nM | EC50 [15]: 10.1 nM
B5: 108VH5.M22 / 108VL1.M5 (antibody, human IgG4 S228P, kappa, V domains shown)
VH: B2 VH with Y33W, I34M, S56I
VL: B2 VL
notes: Full-length IgG4 (S228P), kappa; also called VH5.M22 VL1.M5

CCRF-CEM phagocytosis EC50 [10]: 0.29 nM | CCRF-CEM phagocytosis, Phagocytosis (%) [10]: 57.6% | EC50 [1]: 3.9 nM | Fitted Maximal MFI [1]: 21700 MFI | EC50 [2]: 5.3 nM | Fitted Maximal MFI [2]: 30000 MFI | Kd [16]: 9 nM | koff [16]: 0.0086 s⁻¹ | kon [16]: 950000 M⁻¹ s⁻¹ | Kd (Human CD47-C33G [17]): 87 nM | koff (Human CD47-C33G [17]): 0.019 s⁻¹ | kon (Human CD47-C33G [17]): 210000 M⁻¹ s⁻¹ | EC50 [5]: 5.4 nM | EC50 [6]: 6.4 nM
B6: 108VH10.Mk / 108VL10.Me (antibody, V domains shown)
VH: B8 VH with Y27F, S28T, T30S, P53A, F64V
VL: B8 VL with E27Q, N28S, V29I, G30S, T31S, I33L, S34N, A50G, N53S, T56S
notes: 4D5-framework series; also called VH10.Mk VL10.Me

CCRF-CEM phagocytosis EC50 (nM); plateau not reached [10]: 2.3 nM | EC50 [1]: 3.9 nM | Fitted Maximal MFI [1]: 19400 MFI | EC50 [2]: 8 nM | Fitted Maximal MFI [2]: 27400 MFI | Kd [18]: 7.5 nM | koff [18]: 0.0045 s⁻¹ | kon [18]: 600000 M⁻¹ s⁻¹ | Kd (Human CD47-C33G [19]): 120 nM | koff (Human CD47-C33G [19]): 0.024 s⁻¹ | kon (Human CD47-C33G [19]): 190000 M⁻¹ s⁻¹ | EC50 [5]: 6.4 nM | EC50 [6]: 8.4 nM
B7: 108VH10.Mq / 108VL10.Me (antibody, V domains shown)
VH: B8 VH with Y27F, S28T, T30S, P53A, Q62D, K63S, F64V, D66G
VL: B8 VL with E27Q, N28S, V29I, G30S, T31S, I33L, S34N, A50G, N53S, T56S
notes: 4D5-framework series; constant regions not restated for this series; also called VH10.Mq VL10.Me

CCRF-CEM phagocytosis EC50 [10]: 0.43 nM | CCRF-CEM phagocytosis, Phagocytosis (%) [10]: 49.8% | EC50 [1]: 8.1 nM | Fitted Maximal MFI [1]: 15700 MFI | EC50 [2]: 14.4 nM | Fitted Maximal MFI [2]: 25400 MFI | Kd [18]: 8.8 nM | koff [18]: 0.0031 s⁻¹ | kon [18]: 360000 M⁻¹ s⁻¹ | Kd (Human CD47-C33G [19]): 160 nM | koff (Human CD47-C33G [19]): 0.025 s⁻¹ | kon (Human CD47-C33G [19]): 150000 M⁻¹ s⁻¹ | EC50 [5]: 15.7 nM | EC50 [6]: 49.9 nM
B11: 108VH10.Mr / 108VL10.Me (antibody, V domains shown)
VH: B8 VH with Y27F, S28T, T30S, P53A, S61V, Q62D, K63S, F64V, D66G
VL: B8 VL with E27Q, N28S, V29I, G30S, T31S, I33L, S34N, A50G, N53S, T56S
notes: 4D5-framework series; constant regions not restated for this series; also called VH10.Mr VL10.Me

Source: patent US20260132197A1 (NANJING LEGEND BIOTECH, published 2026)
